From article PMC4603797, “The Structural Differences between a Glycoprotein Specific F-Box Protein Fbs1 and Its Homologous Protein FBG3” (PLoS ONE, 2015)
Substitutions are numbered along the chain they refer to. Values belong to the molecule of their own block, whether it stands above or below them.

Columns and labels:
ribonuclease B [1] = molecular target: ribonuclease B (UniProt P61823); test: pull-down; conditions: read off a plot; for percent of parent: parent: est. 100; for other: Relative RNase B binding (% of Skp1–Fbs1 wild type control): parent: n.d.
ribonuclease B [2] = molecular target: ribonuclease B (UniProt P61823); test: pull-down; conditions: parent: est. 100; read off a plot
Fbs1 SBD L220K = molecular target: T1, Fbs1 SBD L220K (murine, UniProt Q80UW2 117-297, L220K); test: pull-down; His-tagged Fbs1 SBDs (15 μg) immobilised on Ni-NTA agarose, incubated with 10.7 μg RNase B at 4°C for 1 h; 20 mM Tris-HCl pH 7.5, 20 mM imidazole, 500 mM NaCl; SDS-PAGE, CBB staining, densitometry; conditions: both partners purified
T1 construct: Fbs1/FBXO2, murine, SBD residues 117-297; Made with the KOD-Plus Mutagenesis kit; source: E. coli (pET15b), purified (Ni-NTA, gel filtration)
T1 sequence (looked up): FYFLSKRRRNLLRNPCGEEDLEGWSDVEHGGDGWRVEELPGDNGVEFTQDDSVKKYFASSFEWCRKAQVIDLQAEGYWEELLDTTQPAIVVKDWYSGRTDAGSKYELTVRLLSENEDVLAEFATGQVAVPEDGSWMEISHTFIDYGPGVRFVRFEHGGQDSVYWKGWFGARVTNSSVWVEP

Fbs1 SBD T215P = molecular target: T2, Fbs1 SBD T215P (murine, UniProt Q80UW2 117-297, T215P); test: as above; conditions: both partners purified
T2 construct: Fbs1/FBXO2, murine, SBD residues 117-297; Made with the KOD-Plus Mutagenesis kit; source: E. coli (pET15b), purified (Ni-NTA, gel filtration)
T2 sequence (looked up): T1 sequence (looked up) with T99P, K104L

Fbs1 SBD A217C = molecular target: T3, Fbs1 SBD A217C (murine, UniProt Q80UW2 117-297, A217C); test: as above; conditions: both partners purified
T3 construct: Fbs1/FBXO2, murine, SBD residues 117-297; Made with the KOD-Plus Mutagenesis kit; source: E. coli (pET15b), purified (Ni-NTA, gel filtration)
T3 sequence (looked up): T1 sequence (looked up) with A101C, K104L

[3] = molecular target: T4, SBD of Fbs1 (117–297), wild type (murine, UniProt Q80UW2 117-297); test: as above; conditions: both partners purified
T4 construct: In pET15b; also called Fbs1 SBD; Fbs1 wild type; source: E. coli Rosetta (DE3), purified (Ni-NTA, gel filtration)
T4 sequence (looked up): T1 sequence (looked up) with K104L

Molecule: SBD of Fbs1 (117–297), wild type (from UniProt Q80UW2) loops β2-3/β5-6/β7-8/β9-10 of Fbs1 replaced by those of FBG3
percent of parent (ribonuclease B [1]): 2.5%

Molecule: SBD of Fbs1 (117–297), wild type (from UniProt Q80UW2) loop β7-8 of Fbs1 replaced by that of FBG3
percent of parent (ribonuclease B [1]): 96%

Molecule: Skp1–FBG3 complex, wild type (His-tagged Skp1) (from UniProt P63208;Q9H4M3) loops β2-3/β5-6/β7-8 of FBG3 replaced by those of Fbs1
other: Relative RNase B binding (% of Skp1–Fbs1 wild type control) (ribonuclease B [1]): 84%

Molecule: SBD of Fbs1 (117–297), wild type (from UniProt Q80UW2) loop β2-3 of Fbs1 replaced by that of FBG3
percent of parent (ribonuclease B [1]): 62%

Molecule: Skp1–FBG3 complex, wild type (His-tagged Skp1) (from UniProt P63208;Q9H4M3) loops β2-3/β5-6/β7-8/β9-10 of FBG3 replaced by those of Fbs1
other: Relative RNase B binding (% of Skp1–Fbs1 wild type control) (ribonuclease B [1]): 78%

B1: ribonuclease B (enzyme, bovine, UniProt P61823 27-150, looked up)
chain: KETAAAKFERQHMDSSTSAASSSNYCNQMMKSRNLTKDRCKPVNTFVHESLADVQAVCSQKNVACKNGQTNCYQSYSTMSITDCRETGSSKYPNCAYKTTQANKHIIVACEGNPYVPVHFDASV
modifications: a single high-mannose oligosaccharide
notes: ribonuclease B (glycosylated pancreatic ribonuclease), bovine pancreas; The Fbs proteins recognise the N-glycan of this glycoprotein; also called RNase B; source: bought: Sigma Aldrich (from bovine pancreas)
binding result (Fbs1 SBD L220K): binds
binding result (Fbs1 SBD T215P): binds
binding result (Fbs1 SBD A217C): binds
binding result [3]: binds

Results, then the molecule that gave them:

percent of parent (ribonuclease B [1]): 12%
Molecule: SBD of Fbs1 (117–297), wild type (from UniProt Q80UW2) loops β2-3/β5-6 of Fbs1 replaced by those of FBG3

percent of parent (ribonuclease B [1]): 110%
Molecule: SBD of Fbs1 (117–297), wild type (from UniProt Q80UW2) loop β9-10 of Fbs1 replaced by that of FBG3

percent of parent (ribonuclease B [1]): 28%
percent of parent (ribonuclease B [2]): 25%
Molecule: SBD of Fbs1 (117–297), wild type (from UniProt Q80UW2) loop β5-6 of Fbs1 replaced by that of FBG3
